Experimental data published in the supplement of paper PMC7877785.
± gives the uncertainty stated by the source.

Assay: self-splicing fitness, log relative to wild type (ln ratio); higher = more splicing; Tetrahymena group I intron in knt gene, E. coli kanamycin selection, DiMSum; sequences stand for … in CUCUCU…GGAGGGAAAAGUUAUCAGGCAUGCACCUGGUAGCUAGUCUUUAAACCAAUAGAUUGCAUCGGUUUAAAAGGCAAGACCGUCAAAUUGCGGGAAAGGGGUCAACAGCCGUUCAGUACCAAGUCUCAGGGGAAACUUUGAGAUGGCCUUGCAAAGGGUAUGGUAAUAAGCUGACGGACAUGGUCCUAACCACGCAGCCAAGUCCUAAGUCAACAGAUCUUCUGUUGAUAUGGAUGCAGUUCACAGACUAAAUGUCGGUCGGGGAAGAUGUAUUCUUCUCAUAAGAUAUAGUCGGACCUCUCCUUAAUGGGAGCUAGCGGAUGAAGUGAUGCAACACUGGAGCCGCUGGGAACUAAUUUGUAUGCGAAAGUAUAUUGAUUAGUUUUGGAGUACUCGUGGUCG
In short: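 Six replicate transformations of E. coli BL21(DE3) with a pET-22b(+) library were grown overnight at 37°C or 30°C. The library randomised all eight P1ex-region intron nucleotides, the intron lying in the knt kanamycin-resistance gene, and plates were LB agar with or without 25 μg/mL kanamycin plus 100 μg/mL carbenicillin, 50 μM IPTG and 0.2% rhamnose. Pooled colonies were amplicon-sequenced on an Illumina HiSeq 2500, and fitness is the DiMSum error-weighted combination of wild-type-normalised replicate fold changes, kanamycin versus none.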

CUCAAGCAAUAUUACGUGCU
self-splicing fitness (ln) (30 °C): -4.3 ± 0.24
self-splicing fitness (ln) (37 °C): -2.73 ± 0.17

CUCAAGCAAUAUUACGUGUU
self-splicing fitness (ln) (30 °C): -3.89 ± 0.23
self-splicing fitness (ln) (37 °C): -2.76 ± 0.22

CUCAAGCAAUAUUACGUUAA
self-splicing fitness (ln) (30 °C): -4.15 ± 0.3
self-splicing fitness (ln) (37 °C): -2.76 ± 0.19

CUCCAGCAAUAUUACGAAAG
self-splicing fitness (ln) (30 °C): -0.942 ± 0.11
self-splicing fitness (ln) (37 °C): -1.41 ± 0.14

CUCCAGCAAUAUUACGACCG
self-splicing fitness (ln) (30 °C): -0.451 ± 0.12
self-splicing fitness (ln) (37 °C): -1.15 ± 0.2

CUCCAGCAAUAUUACGACGG
self-splicing fitness (ln) (30 °C): -3.56 ± 0.23
self-splicing fitness (ln) (37 °C): -2.42 ± 0.24

CUCCAGCAAUAUUACGACUU
self-splicing fitness (ln) (30 °C): -3.85 ± 0.26
self-splicing fitness (ln) (37 °C): -2.15 ± 0.19

CUCCAGCAAUAUUACGAGAC
self-splicing fitness (ln) (30 °C): -4.42 ± 0.46
self-splicing fitness (ln) (37 °C): -3.28 ± 0.37

CUCCAGCAAUAUUACGAGAG
self-splicing fitness (ln) (30 °C): -4.68 ± 0.31
self-splicing fitness (ln) (37 °C): -1.32 ± 0.13

CUCCAGCAAUAUUACGAGAU
self-splicing fitness (ln) (30 °C): -2.99 ± 0.19
self-splicing fitness (ln) (37 °C): -3.15 ± 0.21

CUCCAGCAAUAUUACGAGUC
self-splicing fitness (ln) (30 °C): -3.83 ± 0.34
self-splicing fitness (ln) (37 °C): -2.15 ± 0.26

CUCCAGCAAUAUUACGAUCC
self-splicing fitness (ln) (30 °C): -4.16 ± 0.47
self-splicing fitness (ln) (37 °C): -1.49 ± 0.32

CUCCAGCAAUAUUACGAUUC
self-splicing fitness (ln) (30 °C): -4.14 ± 0.18
self-splicing fitness (ln) (37 °C): -2.72 ± 0.19

CUCCAGCAAUAUUACGAUUU
self-splicing fitness (ln) (30 °C): -3.75 ± 0.2
self-splicing fitness (ln) (37 °C): -2.08 ± 0.15

CUCCAGCAAUAUUACGCAGG
self-splicing fitness (ln) (30 °C): -3.95 ± 0.21
self-splicing fitness (ln) (37 °C): -2.83 ± 0.27

CUCCAGCAAUAUUACGCGGU
self-splicing fitness (ln) (30 °C): -4.01 ± 0.23
self-splicing fitness (ln) (37 °C): -3.96 ± 0.25

CUCCAGCAAUAUUACGCUGU
self-splicing fitness (ln) (30 °C): -4.01 ± 0.34
self-splicing fitness (ln) (37 °C): -2.97 ± 0.34

CUCCAGCAAUAUUACGGCAU
self-splicing fitness (ln) (37 °C): -2.56 ± 0.39

CUCCAGCAAUAUUACGGGCC
self-splicing fitness (ln) (30 °C): -1.01 ± 0.26

CUCCAGCAAUAUUACGGGCU
self-splicing fitness (ln) (30 °C): -3.21 ± 0.13
self-splicing fitness (ln) (37 °C): -2.49 ± 0.18

CUCCAGCAAUAUUACGGGGC
self-splicing fitness (ln) (30 °C): -4.13 ± 0.23
self-splicing fitness (ln) (37 °C): -2.56 ± 0.17

CUCCAGCAAUAUUACGGGGU
self-splicing fitness (ln) (30 °C): -3.58 ± 0.17
self-splicing fitness (ln) (37 °C): -2.61 ± 0.19

CUCCAGCAAUAUUACGUAAC
self-splicing fitness (ln) (30 °C): -3.3 ± 0.13
self-splicing fitness (ln) (37 °C): -3.08 ± 0.2

CUCCAGCAAUAUUACGUCAU
self-splicing fitness (ln) (30 °C): -2.15 ± 0.13
self-splicing fitness (ln) (37 °C): -2.84 ± 0.24

CUCCAGCAAUAUUACGUCCU
self-splicing fitness (ln) (30 °C): -3.42 ± 0.28
self-splicing fitness (ln) (37 °C): -3.01 ± 0.38

CUCCAGCAAUAUUACGUCUA
self-splicing fitness (ln) (30 °C): -4.32 ± 0.24
self-splicing fitness (ln) (37 °C): -3.05 ± 0.18

CUCCAGCAAUAUUACGUCUC
self-splicing fitness (ln) (30 °C): -2.97 ± 0.17
self-splicing fitness (ln) (37 °C): -3.71 ± 0.33

CUCCAGCAAUAUUACGUGUC
self-splicing fitness (ln) (30 °C): -3.56 ± 0.22
self-splicing fitness (ln) (37 °C): -2.55 ± 0.23

CUCCAGCAAUAUUACGUUUG
self-splicing fitness (ln) (30 °C): -3.57 ± 0.12
self-splicing fitness (ln) (37 °C): -2.1 ± 0.11

CUCGAGCAAUAUUACGAAGA
self-splicing fitness (ln) (30 °C): -2.78 ± 0.29
self-splicing fitness (ln) (37 °C): -1.64 ± 0.25

CUCGAGCAAUAUUACGAAUA
self-splicing fitness (ln) (30 °C): -3.12 ± 0.3
self-splicing fitness (ln) (37 °C): -2.59 ± 0.28

CUCGAGCAAUAUUACGACAA
self-splicing fitness (ln) (30 °C): -2.69 ± 0.19
self-splicing fitness (ln) (37 °C): -2.65 ± 0.19

CUCGAGCAAUAUUACGACCC
self-splicing fitness (ln) (37 °C): -1.61 ± 0.46

CUCGAGCAAUAUUACGAGCA
self-splicing fitness (ln) (30 °C): -4.04 ± 0.42
self-splicing fitness (ln) (37 °C): -2.09 ± 0.27

CUCGAGCAAUAUUACGAGGU
self-splicing fitness (ln) (30 °C): -3.53 ± 0.24
self-splicing fitness (ln) (37 °C): -2.58 ± 0.21

CUCGAGCAAUAUUACGAGUU
self-splicing fitness (ln) (37 °C): -2.42 ± 0.24

CUCGAGCAAUAUUACGAUUA
self-splicing fitness (ln) (30 °C): -3.13 ± 0.3
self-splicing fitness (ln) (37 °C): -2.56 ± 0.26

CUCGAGCAAUAUUACGCCGA
self-splicing fitness (ln) (30 °C): -1.32 ± 0.19
self-splicing fitness (ln) (37 °C): -2.42 ± 0.24

CUCGAGCAAUAUUACGCUAA
self-splicing fitness (ln) (37 °C): -2.34 ± 0.36

CUCGAGCAAUAUUACGCUUC
self-splicing fitness (ln) (30 °C): -3.71 ± 0.3
self-splicing fitness (ln) (37 °C): -2.24 ± 0.29

CUCGAGCAAUAUUACGGCCA
self-splicing fitness (ln) (30 °C): -2.34 ± 0.24
self-splicing fitness (ln) (37 °C): -3.47 ± 0.35

CUCGAGCAAUAUUACGGGGU
self-splicing fitness (ln) (30 °C): -3.46 ± 0.18
self-splicing fitness (ln) (37 °C): -2.54 ± 0.22

CUCGAGCAAUAUUACGGUAG
self-splicing fitness (ln) (30 °C): -2.62 ± 0.16
self-splicing fitness (ln) (37 °C): -0.386 ± 0.12

CUCGAGCAAUAUUACGUAUA
self-splicing fitness (ln) (37 °C): -2.29 ± 0.31

CUCUAGCAAUAUUACGACGC
self-splicing fitness (ln) (37 °C): -1.31 ± 0.35

CUCUAGCAAUAUUACGACUU
self-splicing fitness (ln) (37 °C): -3.23 ± 0.31

CUCUAGCAAUAUUACGCGCU
self-splicing fitness (ln) (30 °C): -2.55 ± 0.3
self-splicing fitness (ln) (37 °C): -3.61 ± 0.27

CUCUAGCAAUAUUACGCUAG
self-splicing fitness (ln) (30 °C): -3.15 ± 0.25
self-splicing fitness (ln) (37 °C): -1.85 ± 0.28

CUCUAGCAAUAUUACGGACU
self-splicing fitness (ln) (37 °C): -4.16 ± 0.39

CUCUAGCAAUAUUACGGAGC
self-splicing fitness (ln) (30 °C): -3.72 ± 0.27
self-splicing fitness (ln) (37 °C): -3.48 ± 0.26
